Consider four molecules from patent US20140087995A1 (published 2014).

Assay [1] deals with T1, rat calcitonin receptor (rat, UniProt P32214 25-516).
T1 construct: whole, on cells; Used as membranes prepared from the transfected cells; also called rCTR; rCT
T1 sequence (looked up): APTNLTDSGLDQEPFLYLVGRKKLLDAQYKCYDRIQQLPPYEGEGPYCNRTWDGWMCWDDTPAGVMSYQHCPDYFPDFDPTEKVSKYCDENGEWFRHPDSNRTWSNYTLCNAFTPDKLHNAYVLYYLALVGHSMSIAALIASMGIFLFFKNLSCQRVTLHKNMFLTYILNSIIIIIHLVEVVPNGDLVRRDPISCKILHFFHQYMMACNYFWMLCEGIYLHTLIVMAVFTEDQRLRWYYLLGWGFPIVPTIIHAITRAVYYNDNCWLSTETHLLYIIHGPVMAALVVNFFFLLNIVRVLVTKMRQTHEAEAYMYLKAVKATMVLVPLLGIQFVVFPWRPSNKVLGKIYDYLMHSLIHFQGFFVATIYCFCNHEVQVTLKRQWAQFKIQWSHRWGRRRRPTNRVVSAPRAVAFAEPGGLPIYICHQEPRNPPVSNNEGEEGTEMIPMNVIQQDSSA
The assay is described as follows: SPA competition with 125I-calcitonin, membranes with rat calcitonin receptor (Assay VIII).

Assay [2] addresses T1, rat calcitonin receptor. Description: ratio of binding IC50 at rat calcitonin receptor to IC50 at rat amylin receptor (reference).
Assay [3] addresses T2, human calcitonin receptor (human, UniProt P30988 25-474).
T2 construct: whole, on cells; Used as membranes prepared from the transfected cells; also called hCTR; hCT
T2 sequence (looked up): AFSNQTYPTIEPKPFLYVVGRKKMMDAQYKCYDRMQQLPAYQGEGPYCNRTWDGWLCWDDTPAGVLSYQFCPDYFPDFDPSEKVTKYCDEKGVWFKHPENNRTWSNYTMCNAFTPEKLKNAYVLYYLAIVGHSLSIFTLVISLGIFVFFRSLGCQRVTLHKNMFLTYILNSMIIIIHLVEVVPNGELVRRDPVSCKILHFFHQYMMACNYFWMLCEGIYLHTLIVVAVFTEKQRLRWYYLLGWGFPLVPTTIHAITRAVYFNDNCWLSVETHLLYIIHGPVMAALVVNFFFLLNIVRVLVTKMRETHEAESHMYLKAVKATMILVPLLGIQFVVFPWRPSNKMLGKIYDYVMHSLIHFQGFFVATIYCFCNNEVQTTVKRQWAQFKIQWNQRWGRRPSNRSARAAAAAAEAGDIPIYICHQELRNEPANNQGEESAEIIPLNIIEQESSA
Description: ratio of binding IC50 at human calcitonin receptor to IC50 at human amylin receptor (reference). The essentials:
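Membranes (35 ng/μL final) + SPA beads, 50 mM Hepes pH 7.4 buffer with 1 mM CaCl2, 5 mM MgCl₂, 0.1% OA, 0.02% Tween20; 120 min, 25° C, shaking; centrifuged, counted; IC₅₀ by one-site binding competition.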

The target in assay [4] is T3, rat amylin receptor (rat calcitonin receptor with rat RAMP 3) (rat, UniProt P32214 25-516; Q9JJ73 23-147).
T3 construct: whole, on cells; Used as membranes prepared from the transfected cells; also called rAmylin-R; rAmylin
T3 sequence (looked up) 1: T1 sequence (looked up)
T3 sequence (looked up) 2: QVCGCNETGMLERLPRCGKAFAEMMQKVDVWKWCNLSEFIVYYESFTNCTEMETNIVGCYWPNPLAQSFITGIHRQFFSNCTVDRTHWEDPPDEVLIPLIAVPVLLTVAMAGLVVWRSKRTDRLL
Description: SPA competition with 125I-rat amylin, membranes with rat calcitonin receptor + rat RAMP3 (Assay VI).

For assay [5], the target named is T4, rat calcitonin receptor (rat, UniProt P32214 25-516).
T4 construct: whole, on cells; In cell membranes prepared from transiently transfected BHK tk'ts 13 cells (Assay VIII); also called rCTR; rat calcitonin (a) receptor
T4 sequence (looked up): T1 sequence (looked up)
The assay is described as follows: ratio of binding IC50s: rat calcitonin receptor (Assay VIII) over rat amylin receptor (Assay VI).

Assay [6] has as its target T5, human calcitonin receptor (human, UniProt P30988 25-474).
T5 construct: whole, on cells; Cell membranes from the stably transfected cell line (Assay VII); also called hCTR; hCT
T5 sequence (looked up): T2 sequence (looked up)
Description: ratio of binding IC50s: human calcitonin receptor (Assay VII) over human amylin receptor (Assay V). The protocol:
The resulting pellet was resuspended, homogenized and centrifuged (20.000 rpm, 15 min) in a buffer containing 20 mM Na-HEPES and 0.1 mM EDTA (pH 7.4, buffer 2). The resulting pellet was resuspended in buffer 2 and protein concentration was measured (BCA protein Assay, Pierce). The homogenate was kept cold during the whole procedure. The membranes were kept at −80° C. until use. The assay was performed in a 384 well Optiplate (PerkinElmer) in a total volume of 40 ul. Membranes were mixed with SPA beads. Final concentration of membranes 35 ng/μL final and SPA beads was 0.05 mg/well. Test-compounds were dissolved in DMSO and further diluted in assay buffer (50 mM Hepes, pH 7.4, 1 mM CaCl2, 5 mM MgCl₂, 0.1% OA and 0.02% Tween20). […] The final mixture was incubated with shaking at 400 rpm for 120 min at 25° C. prior to centrifugation (1500 rpm, 10 min). Samples were analyzed on TopCounter™ (Packard). The IC₅₀ was calculated using (one site binding competition analysis) GraphPad Prism5 as a measure of receptor affinity.
Membranes were prepared in the following way; the cells were rinsed with PBS and incubated with Versene for approximately 5 min before harvesting. The cells were flushed with PBS and the cell-suspension was centrifuged for 5 min at 1000 rpm. Cells were homogenized (Ultrathurrax) in a buffer containing 20 mM Na-HEPES and 10 mM EDTA (pH 7.4) and centrifuged at 20.000 rpm for 15 min. The resulting pellet was resuspended, homogenized and centrifuged (20.000 rpm, 15 min) in a buffer containing 20 mM Na-HEPES and 0.1 mM EDTA (pH 7.4, buffer 2). The resulting pellet was resuspended in buffer 2 and protein concentration was measured (BCA protein Assay, Pierce). The homogenate was kept cold during the whole procedure. The membranes were kept at −80° C. until use. Assay was performed in a 384 well Optiplate (PerkinElmer) in a total volume of 40 ul. Membranes were mixed with SPA beads.

The target in assay [7] is T4, rat calcitonin receptor. The assay is described as follows: SPA competition binding, displacement of 125I-Calcitonin from membranes of BHK tk'ts 13 cells with rat calcitonin receptor (Assay VIII).
Assay [8] deals with T6, rat amylin receptor (rat calcitonin receptor + rat RAMP 3) (rat, UniProt P32214 25-516; Q9JJ73 23-147).
T6 construct: whole, on cells; Receptor complex in cell membranes prepared from transiently transfected BHK tk'ts 13 cells (Assay VI); also called rAmylin-R; rat amylin 3(a) receptor
T6 sequence (looked up) 1: T1 sequence (looked up)
T6 sequence (looked up) 2: T3 sequence (looked up) 2
Description: SPA competition binding, displacement of 125I-rat amylin from membranes of BHK tk'ts 13 cells with rat calcitonin receptor + rat RAMP 3 (Assay VI). (In general: In a radioligand displacement assay an active substance lowers the binding of a labelled ligand.)

Numbered stars: 1 amine (or outer) side, 2 acyl side, 3 side chain; on linkers, the order of the positions; unused ones are H or OH. Bridge positions count the residues as written; N and C are the ends. Side chains are listed from the residue outwards. Ends that are not written are not given here. * marks the point of attachment. C20 diacid = O=C(O)CCCCCCCCCCCCCCCCCCC(=O)*; γGlu = O=C(O)[C@H](CCC(=O)[*:2])N[*:1]; AEEA = NCCOCCOCC(=O)O

B1: N^ε1-[2-[2-[2-[[2-[2-[2-[[(4S)-4-carboxy-4-(19-carboxynonadecanoylamino)butanoyl]amino]ethoxy]ethoxy]acetyl]amino]ethoxy]ethoxy]acetyl]-[Arg17,Pro21,Pro27,Arg34 … (peptide)
peptide: K([AEEA-AEEA-γGlu-C20 diacid])CNTATCATQRLANFLRHSSPNFGAIPSSTNVGRNTY-NH2
modifications: disulfide 2-7; N-terminus assumed
SMILES: CC[C@H](C)[C@H](NC(=O)[C@H](C)NC(=O)CNC(=O)[C@H](Cc1ccccc1)NC(=O)[C@H](CC(N)=O)NC(=O)[C@@H]1CCCN1C(=O)[C@H](CO)NC(=O)[C@H](CO)NC(=O)[C@H](Cc1c[nH]cn1)NC(=O)[C@H](CCCNC(=N)N)NC(=O)[C@H](CC(C)C)NC(=O)[C@H](Cc1ccccc1)NC(=O)[C@H](CC(N)=O)NC(=O)[C@H](C)NC(=O)[C@H](CC(C)C)NC(=O)[C@H](CCCNC(=N)N)NC(=O)[C@H](CCC(N)=O)NC(=O)[C@@H](NC(=O)[C@H](C)NC(=O)[C@@H]1CSSC[C@H](NC(=O)[C@@H](N)CCCCNC(=O)COCCOCCNC(=O)COCCOCCNC(=O)CC[C@H](NC(=O)CCCCCCCCCCCCCCCCCCC(=O)O)C(=O)O)C(=O)N[C@@H](CC(N)=O)C(=O)N[C@@H]([C@@H](C)O)C(=O)N[C@@H](C)C(=O)N[C@@H]([C@@H](C)O)C(=O)N1)[C@@H](C)O)C(=O)N1CCC[C@H]1C(=O)N[C@@H](CO)C(=O)N[C@@H](CO)C(=O)N[C@H](C(=O)N[C@@H](CC(N)=O)C(=O)N[C@H](C(=O)NCC(=O)N[C@@H](CCCNC(=N)N)C(=O)N[C@@H](CC(N)=O)C(=O)N[C@H](C(=O)N[C@@H](Cc1ccc(O)cc1)C(N)=O)[C@@H](C)O)C(C)C)[C@@H](C)O
notes: Analogue of human amylin; disulfide and C-terminal amide as told for h-amylin; also called compound 95
As for B1, the IC50 with rat calcitonin receptor [1] is 388 nM; in assay [4] it was 5.45 nM. For the same molecule, in the assay with rat calcitonin receptor [2], the “Ratio rCT/rAmylin binding” value turned out to be 71.3. In addition, the “Ratio hCT/hAmylin binding” value in assay [3] was found to be 63.4.

B2: N^ε1-[2-[2-[2-[[2-[2-[2-[[(4S)-4-carboxy-4-(19-carboxynonadecanoylamino)butanoyl]amino]ethoxy]ethoxy]acetyl]amino]ethoxy]ethoxy]acetyl]-[Arg17,Pro21,Pro27,His34 … (peptide)
peptide: K([AEEA-AEEA-γGlu-C20 diacid])CNTATCATQRLANFLRHSSPNFGAIPSSTNVGHNTY-NH2
modifications: disulfide 2-7; N-terminus assumed
SMILES: CC[C@H](C)[C@H](NC(=O)[C@H](C)NC(=O)CNC(=O)[C@H](Cc1ccccc1)NC(=O)[C@H](CC(N)=O)NC(=O)[C@@H]1CCCN1C(=O)[C@H](CO)NC(=O)[C@H](CO)NC(=O)[C@H](Cc1c[nH]cn1)NC(=O)[C@H](CCCNC(=N)N)NC(=O)[C@H](CC(C)C)NC(=O)[C@H](Cc1ccccc1)NC(=O)[C@H](CC(N)=O)NC(=O)[C@H](C)NC(=O)[C@H](CC(C)C)NC(=O)[C@H](CCCNC(=N)N)NC(=O)[C@H](CCC(N)=O)NC(=O)[C@@H](NC(=O)[C@H](C)NC(=O)[C@@H]1CSSC[C@H](NC(=O)[C@@H](N)CCCCNC(=O)COCCOCCNC(=O)COCCOCCNC(=O)CC[C@H](NC(=O)CCCCCCCCCCCCCCCCCCC(=O)O)C(=O)O)C(=O)N[C@@H](CC(N)=O)C(=O)N[C@@H]([C@@H](C)O)C(=O)N[C@@H](C)C(=O)N[C@@H]([C@@H](C)O)C(=O)N1)[C@@H](C)O)C(=O)N1CCC[C@H]1C(=O)N[C@@H](CO)C(=O)N[C@@H](CO)C(=O)N[C@H](C(=O)N[C@@H](CC(N)=O)C(=O)N[C@H](C(=O)NCC(=O)N[C@@H](Cc1c[nH]cn1)C(=O)N[C@@H](CC(N)=O)C(=O)N[C@H](C(=O)N[C@@H](Cc1ccc(O)cc1)C(N)=O)[C@@H](C)O)C(C)C)[C@@H](C)O
notes: Analogue of human amylin; disulfide and C-terminal amide as told for h-amylin; also called compound 97
Take B2: the IC50 with rat calcitonin receptor [1] was determined as 159 nM; in assay [4], 2.24 nM. Moreover, the “Ratio rCT/rAmylin binding” value in the assay with rat calcitonin receptor [2] is 71.1. Further, in assay [3], the “Ratio hCT/hAmylin binding” value was 104.

B3: N^ε1-[(4S)-4-carboxy-4-[[(4S)-4-carboxy-4-(19-carboxynonadecanoylamino)butanoyl]amino]butanoyl]-[Glu14,Arg17,Pro21,Pro27,Pro34,Phe37]-h-amylin (peptide)
peptide: K([γGlu-γGlu-C20 diacid])CNTATCATQRLAEFLRHSSPNFGAIPSSTNVGPNTF-NH2
modifications: disulfide 2-7; N-terminus assumed
SMILES: CC[C@H](C)[C@H](NC(=O)[C@H](C)NC(=O)CNC(=O)[C@H](Cc1ccccc1)NC(=O)[C@H](CC(N)=O)NC(=O)[C@@H]1CCCN1C(=O)[C@H](CO)NC(=O)[C@H](CO)NC(=O)[C@H](Cc1c[nH]cn1)NC(=O)[C@H](CCCNC(=N)N)NC(=O)[C@H](CC(C)C)NC(=O)[C@H](Cc1ccccc1)NC(=O)[C@H](CCC(=O)O)NC(=O)[C@H](C)NC(=O)[C@H](CC(C)C)NC(=O)[C@H](CCCNC(=N)N)NC(=O)[C@H](CCC(N)=O)NC(=O)[C@@H](NC(=O)[C@H](C)NC(=O)[C@@H]1CSSC[C@H](NC(=O)[C@@H](N)CCCCNC(=O)CC[C@H](NC(=O)CC[C@H](NC(=O)CCCCCCCCCCCCCCCCCCC(=O)O)C(=O)O)C(=O)O)C(=O)N[C@@H](CC(N)=O)C(=O)N[C@@H]([C@@H](C)O)C(=O)N[C@@H](C)C(=O)N[C@@H]([C@@H](C)O)C(=O)N1)[C@@H](C)O)C(=O)N1CCC[C@H]1C(=O)N[C@@H](CO)C(=O)N[C@@H](CO)C(=O)N[C@H](C(=O)N[C@@H](CC(N)=O)C(=O)N[C@H](C(=O)NCC(=O)N1CCC[C@H]1C(=O)N[C@@H](CC(N)=O)C(=O)N[C@H](C(=O)N[C@@H](Cc1ccccc1)C(N)=O)[C@@H](C)O)C(C)C)[C@@H](C)O
In the case of B3, the “Ratio rCT/rAmylin binding” value in the assay with rat calcitonin receptor [5] was found to be 114. The “Ratio hCT/hAmylin binding” value in assay [6] turned out to be 18. Besides, the IC50 with rat calcitonin receptor [7] was 23.4 nM; in assay [8], 0.205 nM.

With K([γGlu-γGlu-C20 diacid])CNTATCATQRLAEFLRHSSNNPGAILSSTNVGPETY-NH2 (disulfide 2-7), the “Ratio rCT/rAmylin binding” value with rat calcitonin receptor [5] was determined as 132. Also, the “Ratio hCT/hAmylin binding” value in assay [6] amounted to 7.8. The IC50 with rat calcitonin receptor [7] was 86.8 nM; in assay [8], 0.659 nM.

What is called IC50 is the point on the concentration scale where inhibition reaches its midpoint.
